{"source": "the NTF2 design screens of Basanta et al. (2020)"}
{"experiment": "protease stability score; higher = more stable; yeast display proteolysis, trypsin and chymotrypsin;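 further: relative to predicted unfolded state with 0 unfolded-like and 1 meaning tenfold more protease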"}
{"sequence": "SEEEKRIRDWARLMEEWRRTGDEEDMSRNLDPNARLILIIDGRNILFHGREEVVRVLEELKERLGFKHEEIKDSRVQGDFLHIHGTLRFDGVETEVRVDTIVINGVVRTLKYHFE", "protease stability score": 0.467}
{"sequence": "DEDTELDETISREIIHAEKTGNEDWLTKLIDPNPRIEINGRIFHGMDFWLKFLKDMGVDHIDVKRDRAYNGVLDMDGYIIVNGREIRTHIHIVIVDGKATHIRIEIR", "protease stability score": 1.61}
{"sequence": "REDEDAVREWALKFLESSLTGDEHFLKNLMDPHARLVIGDKHFHGREEVVRTWREFLTKFKNVRHDLHDINIQGDKVDVVENLVFDGVRTRTRITMRKVDGRWVITDIVIE", "protease stability score": 2.08}
{"sequence": "DETHKLLEDLTRLFWELTHTGDEEIVEELADPHVRSEINGKERHGREEHVKAWREWRIERMTLRSVSVINGQMSIDGEIVLKIGDKRIETRIEIRIHIVDGVMKSVKIHLE", "protease stability score": 0.937}
{"sequence": "SEEEKLAHEYVRHIIELLETGDEQNVQDLMDPNARSVMIIDGREIYTHGRDAFSHLLKLMGFDHSRLKDIKIYDGRVHSHIEVSVNGREVEVHLIVRKVDGRWVLQETRFHLH", "protease stability score": 1.19}
{"sequence": "SEIDEEIEKHFELYTHALHTGDEHVLRRLLDPDARLTVGDKTFHGREQVVKELSREIHELRVRDMEIKDEKLVGDKLHQDTRLQFKFNGKEHEIITNFIWLKVNGQWVIREVRYD", "protease stability score": 1.25}
{"sequence": "HDREKIAITFLKFLIHWHLTGNEDHLRENIDPHVRIRIHIDGKNNHLVGMEDWYKWVREELERADHLELRLDDVDVQGDKLHSDITNIIRIDGKTIVRKVHVHLDVVNGQVKSIEIEIR", "protease stability score": 2.54}
{"sequence": "TEDEHDARLALHILLELLRTGDEDSLSKYIDPNVRNEVNGQDLHGRNTMERLLKHWRIEEVRVKDVRVQGDKVIMHGREVIRQGDYVIDQDVHWLLVKVDGRWLLHSIHFR", "protease stability score": 0.918}
{"sequence": "SEDERDSKIAAEINRHWLETGDEEHFKKNVDPHTKVRIGDKEYHGRHFLLHILEHHVKHLWFEVRIEDLRLIGDFVHIDMVLFIRVDGRQETFRIRIIAQKIDGRWVVKHINIE", "protease stability score": 0.097}
{"sequence": "DEEEEHLHSVAKRFLHSVETGDWKDLYELLDPHARFESVFNGRKVEHHGREEARKWFQEWVERFKNMRLHIEEVRTQGDKTHVDSRVHYGDKTINTIIHIVIVNGKVHHVEIRVK", "protease stability score": 2.2}
{"sequence": "SDEKKRLDDLAMTFLTLWMTGDWDHFARQADPHVRSDINGKELHGREIFVNFLREEMTRLGVDHFELHSVTVIDGKVHFDGEVDVNGVRHKTILWSVIFNGRIKSQEEEIR", "protease stability score": 1.15}
{"sequence": "RELERDSTELIKMWLRHLETGDEDVISELIDPNVKVDINGQDHHGREDATEWAMRVKNMTIIVRHLEFQGEKAFVTTEVRVNGKTVHVIVRSLKVDGRWRLESLEVHSE", "protease stability score": 1.59}
{"sequence": "SEKEEVLREHARRVTEWWLTGDWEEFMKNMDPNARLQIGDKTSHGREEMYRVLKEIEHRLGVDHIEIKDEKVFNGRNHLDTRLHIGDKSINIRIHIDFVNGRLKFVRIEVD", "protease stability score": 1.18}
{"sequence": "DELQRDSKQAVKLWSESVLTGDERVLKEMADPDPRVEVGEYSSHGMHEVKRLLREMRIEVEDFKDENVRVYGEKLVVDGILHIRIHINGRDEHIDRRAILIMVKVDGRWYFKSMVYR", "protease stability score": 0.781}
{"sequence": "SEEEENIEHSLRIMNENLETGDEHSLAELFDPNAKIDIGDKHLHGRETLITHLVLLGIKHSSIINREYHMIGEWAHINGDLRIEIGDKERHHDVRILSRKIDGRWVVTEFHIR", "protease stability score": 1.19}
{"sequence": "SDHDEISHDMFRLWLELHLTGDPKVLADLFDPRVRLILEVGDKRIEVHGREEFERWYREEMRHLRIEHIHIEHVEVQGEKVHAIIEVHTHVNGRRHIHKTHITMDFIDGRFKRMKIDVK", "protease stability score": 2.14}
{"sequence": "DEEDHILLEIMRRVFESIMTGDEDLFRELADPNVRIRIGNKEMVGWEHIVKTLRKEDEDLGAKHKSFTLDDEDLIGNYAHVEGTLHIEFNGKDIHRHIRINVEVIDGRVKSIRMEDK", "protease stability score": 0.936}
{"sequence": "SEEEDTADEAIKLWLKLFITGDERTLARMMDPNTLNVVGDKEFHGWQFIIELVHKLFEEIRIHELTVEHLHVQGDKVRIDIRIDSRQGDKRHETKVEVILRKVNGRWTVEVIEIH", "protease stability score": 2.39}
{"sequence": "DEIREEMEKVFRVFIHNMFTGDFEKLEELADPNARSKVDGVDDHGMHKFLRHWLHHVRRYGMKVEFEVHHIDVQGDKVQIDTRIVIDYNGRRFEWKSELIAVKIDGQWLIKRIIIH", "protease stability score": 1.6}
{"sequence": "SEDDEKLKDFLRMLIEVILTGDEERFFELLDPHARLEYGDKEFHGREVIYHWFFNEFRRIKGLVFRNIHLREHDVVDGRLQIDLEVHIIFNGKTRSHDIHFVATKIDGRWILRTESIK", "protease stability score": 2.33}
{"sequence": "DELEHRSQEAIEHIVHSMQTGNEEEIERNMDPNARIRVGNYHLHGRKEAVRWFNFFLTELRIHDIHIHDVKSQGEWIHIDGHIRGQINGQEHSVRTHIIVYKINGKWHDTSYHLS", "protease stability score": 0.723}
{"sequence": "DEDFEYALRVAKLFWEAVFTGDEKTLEHLLDPNVRIDINGRHIHGREELIKLFHEIRIHMHEIRIDDIRVQGNYLLVHGHVILEVNINGRTTRIETEVRIEISKVNGRWIIRQSEHT", "protease stability score": 2.08}
{"sequence": "SEDEEFLEWTMRLYTKAHATGDEETLTDLMDPNTRLDINGVIWIGREFVRKHHEDLGAKHSRMDLRIRDRDSINGRLIVHTRFRLKIHIGDKDISIEHHTTLYMIKIDGRWHIREIEIR", "protease stability score": 1.09}
{"sequence": "DEDHEELHHWSRLTLESIKTGNEDELHKFADPNVRFKVNGKDIHGMESFVRFMLEFIDRYPNLVLEEKHFHVVNGRMIQIIRVRVGDKTSEIFLIAHKVDGRWHLEHMEIR", "protease stability score": 1.08}
{"sequence": "DEEKELADYISHLLVENLKTGDWHSLRRLIDPNARLEYGDKEHHGWKEIYESKRHLDEELGVKHVNINIHRINYQGEKVEIDGEVRIHFNGRTENRKVNIELRIFNGRIKEVIVDIR", "protease stability score": 1.17}
{"sequence": "DDWHEILKHHFDNEVESILTGDEDSIKKMIDPHVRLEVNGREVHGMEEFARVMIEIRFRRIDLRERDIFNGVLHLRLEVDWEYGDKRFETEEEVVYFKVNGRWILESMRVR", "protease stability score": 1.26}
{"sequence": "TEIEEHIREVSEILTDWIITGNEEMIEKLLDPHARVVIGDKEHHGREVVIRFLRHWRLHRFDHRSFILQGEKAILIGDMDGDINGQRINLHVEEIHIIVDGRLKILEVKYK", "protease stability score": 2.7}
{"sequence": "DEDVEDSLRALRELTKSLITGDEDSFRHLADPHARFIWNGKEIHGWEEVVKVVSKILKHLRFDDIILRDIRIQGDKIEFVVTDLVTVGDKHEEVDSRVTIYKVNGRWLLHTIKIR", "protease stability score": 1.3}
{"sequence": "SEEEEEWHRLIEHWMRKWLTGDEERLARLADPNVRLEDENHQSHGREEMARFLHEKILKLGVDHTRIRHYRDQGEYLHLDFEVEINGRRVRVKVHVVIIDGVVKELKFHVE", "protease stability score": 1.19}
{"sequence": "TDKEEETKENAEKLTKHILTGNWEEFFNLADPNVRMHIQQGDKRINRHGREDAYHEYKDLERNLGIDHMHIKDIRVQGDWVHIHLEYRYGDKRFEVEIVLLIVDGRLTEVNVTIR", "protease stability score": 1.09}
{"sequence": "SEREEHTEEVWRDWLQSILTGDEDDLKRLADPHVRLEINFDGRTLIYHGREIVARFWSELRIRHFTLRHLKMIGDKIQVKGETKLEQGDKKVDSSVDLDTDIINGVIKREFVVYR", "protease stability score": 0.892}
{"sequence": "SEEEEHVWEWAKLVIDLWQTGNEEIFKELVDPNARSEFDGVTIHGMHNDLKRIIEELREIRVRIEIHSVRVIDGVLDVDVKLRLHIGDKQREIKIRLHIVVIDGKLKSVHIDKH", "protease stability score": 1.9}
{"sequence": "SEEEDLMRHLTELYIRAFETGDEDHLRKLADPHVRLHVDIDGKRLDFHGMEQTSEWWERMGIDVHHLHHHEFIGDKSHIDSEVVFNGRKRKFEINVVIVNGRIKSERHIFK", "protease stability score": 0.691}
{"sequence": "HEQEKFVREYFELWVRAFLTGDEDTILDMMDPDVRIIYGDKTVVGWKELHKFLKRVDHARIKFEFRNTRYDENEAEVDGHRIVHLFFDGKIFDITTQIHVHMVKIDGVWTMKTIVNK", "protease stability score": 1.55}
{"sequence": "HEHEELIRWAVELLEHNTRTGDEETLIRLADPNVRMIFDGRDLVGRDWLLEFEERLGADHVELEFRHVRIIDGRVHVNGIMRHEFDGVRVERRTTIIVKKINGRWNNRTVEFR", "protease stability score": 0.529}
{"sequence": "SEDEEKSHRFRRELLESLFTGDFDRFKELADPHVKVDINGRDIHGMELLVRIWRREEKEAGVNYTKDHDLKDHDIINGRAKIDIRVHGIFNGREQTVEVYIFSLKVDGRWILTFMKIN", "protease stability score": 1.45}
